For test [1], the target named is T1, human hepatocyte growth factor (HGF) (human, UniProt P14210 32-728). Put plainly: cell-based or functional assay.
Test [2] concerns the target T1, human hepatocyte growth factor (HGF). In words: neutralization ELISA (right table): inhibition of the binding of soluble Met (2 nM) to plate-coated HGF, detected with biotinylated anti-cMetR antibody and Eu-streptavidin; column head 'IC50 IP (nM)'. The method, then: (§1) A neutralization ELISA assay was developed to assess whether the antibodies discussed in Example 6 could interrupt Met-HGF binding. Delphia 96-well plates (Cat#: AAAND-0001, Wallac Inc., Gaithersburg, Md.) were coated with HGF by adding 100 μl of HGF at 6.25 μg/ml per well. The plates were incubated at 37° C. for 1 hour or at 4° C. overnight. The plates were then blocked with 5% BSA (Cat#50-61-00, KPL, Gaithersburg, Md.) in PBS containing 0.1% Tween 20 for 1 hour at room temperature with shaking.
(§2) Test samples were prepared by separately mixing soluble Met (2 nM, 0.256 μg/ml) with different concentrations of a particular antibody to HGF being tested. The concentrations tested were: 667 nM, 223 nM, 74.1 nM, 24.7 nM, 8.2 nM, 2.7 nM, 0.91 nM, 0.30 nM, 0.10 nM, and 0.034 nM. A volume of 100 μl of a test sample was added to each well of the plates. The plates were then incubated at 4° C. overnight and then washed 4 times with PBS containing 0.1% Tween 20. Next, 100 μl per well of Biotinylated anti-cMetR antibody (Cat#: BAF358, R&D Systems Inc., Minneapolis, Minn.) at 2 μg/ml, was added. […] The plates were then incubated for 2 hours with shaking, and were washed 4 times with PBS containing 0.1% Tween 20. Eu-streptavidin (1:1000 dilution in Assay buffer) (Cat#1244-360, Wallac Inc., Gaithersburg, Md.) was added and the plates were shaken at room temperature for 1 hour. The plates were then washed 4 times with PBS containing 0.1% Tween 20. Next, 100 μl of enhancement buffer (Wallac Inc., Cat#: 1244-105, Gaithersburg, Md.) was added. After at least for 5 minutes, the plates were read using Europium method on Victor 2 (1420 Multilabel Counter, Wallac Inc., Gaithersburg, Md.).
(§3) Percent inhibition of Met binding to HGF (i.e. neutralization) was calculated and IC₅₀ values were determined using the 4 parameter fit equation Excelfit, Version 2.0.6, (Microsoft Inc, Seattle, Wash.). In the presence of the antibodies to HGF discussed in Examples 6, Met binding to HGF was neutralized.

The target is the same in test [3]. Put plainly: BIAcore 3000, equilibrium/solution method: antibody (0.01-50 nM) incubated with human HGF (0.05 nM and 1 nM), free HGF measured on a chip carrying the same antibody. The protocol:
That method was performed with a BIAcore®3000 (Biacore, Inc., Piscataway, N.J.) using PBS with 0.005% P20 surfactant (BIAcore, Inc. Piscataway, N.J.) as running buffer. The four antibodies to HGF were separately immobilized to research grade CM5 sensor chips (Biacore, Inc. Piscataway, N.J.) via primary amine groups using an Amine Coupling Kit (Biacore, Inc. Piscataway, N.J.) following the manufacturer's instructions.
In separate assays, each of the four antibodies to HGF, over a range of concentrations (from 0.01 nM to 50 nM) was separately incubated with each of two different concentrations (0.05 nM and 1 nM) of human HGF in PBS with 0.005% P-20 and 0.1 mg/mL BSA at room temperature for at least six hours. Each of those samples was then injected over a surface of a CM5 sensor chip onto which the same antibody to HGF had been immobilized. The binding signal obtained was proportional to the free HGF in solution. The dissociation equilibrium constant (KD) was obtained from nonlinear regression analysis of the competition curves using a dual-curve one-site homogeneous binding model (KinExA software, Sapidyne Instruments Inc., Boise Id.).

The target is the same in test [4]. Put plainly: neutralization ELISA (left table): inhibition of the binding of soluble Met (2 nM) to plate-coated HGF, detected with biotinylated anti-cMetR antibody and Eu-streptavidin; column head 'IC50 IP (nM)'. The method, then: as §1, §2, §3

T1 sequence (P14210 32-728 limits assumed): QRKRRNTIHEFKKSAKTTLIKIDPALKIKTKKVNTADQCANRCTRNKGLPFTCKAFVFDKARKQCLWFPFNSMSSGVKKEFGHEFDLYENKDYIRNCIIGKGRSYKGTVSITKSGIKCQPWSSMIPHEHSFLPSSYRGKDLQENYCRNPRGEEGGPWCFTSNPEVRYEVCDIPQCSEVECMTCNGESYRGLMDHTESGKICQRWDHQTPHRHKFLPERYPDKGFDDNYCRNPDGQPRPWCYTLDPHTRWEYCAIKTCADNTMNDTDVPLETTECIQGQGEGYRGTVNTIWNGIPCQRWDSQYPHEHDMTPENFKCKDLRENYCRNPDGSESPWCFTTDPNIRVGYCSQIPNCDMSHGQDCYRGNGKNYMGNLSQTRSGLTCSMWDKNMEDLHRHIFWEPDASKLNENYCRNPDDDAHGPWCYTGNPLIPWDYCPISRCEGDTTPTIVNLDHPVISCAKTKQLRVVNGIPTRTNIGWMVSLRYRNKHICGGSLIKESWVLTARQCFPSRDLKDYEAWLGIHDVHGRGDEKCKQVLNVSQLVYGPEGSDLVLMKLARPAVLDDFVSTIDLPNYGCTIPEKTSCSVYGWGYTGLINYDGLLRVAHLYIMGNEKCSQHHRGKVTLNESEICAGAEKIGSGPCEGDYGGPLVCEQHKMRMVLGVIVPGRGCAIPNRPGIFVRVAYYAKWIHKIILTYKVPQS

B1: antibody 2.12.1 (antibody, human IgG2, kappa, V domains shown)
VH: QVQLQESGPGLVKPSETLSLTCTVSGGSISIYYWSWIRQPPGKGLEWIGYVYYSGSTNYNPSLKSRVTISVDTSKNQFSLKLNSVTAADTAVYYCARGGYDFWSGYFDYWGQGTLVTVSS
VL: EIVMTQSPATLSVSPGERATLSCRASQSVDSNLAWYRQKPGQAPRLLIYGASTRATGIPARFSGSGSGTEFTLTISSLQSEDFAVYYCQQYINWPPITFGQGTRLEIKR
With B1, the “IC50, inhibition of growth/survival of U-87 MG cells” value in test [1] was < 100 nM. In addition, the IC50 in test [2] worked out at 0.52 nM; in test [4], 2.1 nM. In test [3], this molecule registered a Kd of 0.054 nM.

B2: antibody 2.4.4 (antibody, human IgG2, kappa, V domains shown)
VH: QVQLKESGPGLVKPSQTLSLTCTVSGGSISSGVYYWSWIRQHPGKGLEWIGYFYYSGNTYHNPSLKSRVTISVDTSKNQFSLKLSSVTAADTAVYYCARDRSGYDHPDAFDIWGQGTMVTVSS
VL: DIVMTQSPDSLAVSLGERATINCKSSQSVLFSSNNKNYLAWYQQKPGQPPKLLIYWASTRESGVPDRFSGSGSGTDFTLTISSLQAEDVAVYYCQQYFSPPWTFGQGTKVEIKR
notes: also called FITC-labeled antibody 2.4.4
For the molecule B2, in test [1], the “IC50, inhibition of growth/survival of U-87 MG cells” value is < 100 nM. The Kd in test [3] is < 0.01 nM. This molecule also came in with an IC50 in test [4] of 5.1 nM.

These data come from patent publication US20140154243A1 (Amgen, published 2014).
